Assay results from patent publication US20210260216A1 (OSPEDALE SAN RAFFAELE S R L, published 2021).

Target: p53 (Homo sapiens (Human), UniProt P04637 1-393)
Assay: cell-based or functional assay

Chain of p53 (P04637 whole entry): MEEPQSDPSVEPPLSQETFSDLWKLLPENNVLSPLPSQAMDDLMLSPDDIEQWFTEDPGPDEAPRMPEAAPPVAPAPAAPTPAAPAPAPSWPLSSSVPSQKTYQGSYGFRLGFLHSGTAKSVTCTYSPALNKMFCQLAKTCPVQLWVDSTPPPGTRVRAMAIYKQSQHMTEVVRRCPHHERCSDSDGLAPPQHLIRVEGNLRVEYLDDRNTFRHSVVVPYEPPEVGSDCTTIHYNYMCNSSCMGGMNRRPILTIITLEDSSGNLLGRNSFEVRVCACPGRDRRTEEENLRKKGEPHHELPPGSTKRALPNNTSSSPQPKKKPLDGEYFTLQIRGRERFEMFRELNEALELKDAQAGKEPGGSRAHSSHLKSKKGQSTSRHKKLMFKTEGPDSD

B1: GSE56 (p53 dominant negative peptide) (peptide)
peptide: MDGWCPGRDRRTEEENFRKKEEHCPELPPGSAKRALPTSTSSSPQQKKKPLDGEYFTLKIRGRERFEMFRELNEALELKDARAAEESGDSRAHSSYPKIVS
B1 was tested, and the “fold decrease in TaqMan assay of CDKN1A (p21) gene fold expression at 24 hours post-editing” value was ~3 fold.
